IntAct's records for PubMed 29892012

Key:
dcor_human ODC1 = target: T1, dcor_human ODC1 (UniProt P11926)
T1 sequence: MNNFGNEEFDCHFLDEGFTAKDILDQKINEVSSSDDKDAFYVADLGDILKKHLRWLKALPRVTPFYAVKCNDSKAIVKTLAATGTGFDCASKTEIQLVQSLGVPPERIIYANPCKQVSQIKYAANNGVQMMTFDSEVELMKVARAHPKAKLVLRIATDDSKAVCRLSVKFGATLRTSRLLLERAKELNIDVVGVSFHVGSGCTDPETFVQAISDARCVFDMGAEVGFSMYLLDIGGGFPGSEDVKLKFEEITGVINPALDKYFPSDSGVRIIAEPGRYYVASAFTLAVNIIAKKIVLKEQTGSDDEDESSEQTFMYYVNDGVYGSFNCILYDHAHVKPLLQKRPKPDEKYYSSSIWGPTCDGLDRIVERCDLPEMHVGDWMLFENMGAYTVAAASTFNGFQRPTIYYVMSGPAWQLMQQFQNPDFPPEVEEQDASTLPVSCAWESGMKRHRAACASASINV

bend5_human BEND5 = target: T2, bend5_human BEND5 (UniProt Q7L4P6)
T2 sequence: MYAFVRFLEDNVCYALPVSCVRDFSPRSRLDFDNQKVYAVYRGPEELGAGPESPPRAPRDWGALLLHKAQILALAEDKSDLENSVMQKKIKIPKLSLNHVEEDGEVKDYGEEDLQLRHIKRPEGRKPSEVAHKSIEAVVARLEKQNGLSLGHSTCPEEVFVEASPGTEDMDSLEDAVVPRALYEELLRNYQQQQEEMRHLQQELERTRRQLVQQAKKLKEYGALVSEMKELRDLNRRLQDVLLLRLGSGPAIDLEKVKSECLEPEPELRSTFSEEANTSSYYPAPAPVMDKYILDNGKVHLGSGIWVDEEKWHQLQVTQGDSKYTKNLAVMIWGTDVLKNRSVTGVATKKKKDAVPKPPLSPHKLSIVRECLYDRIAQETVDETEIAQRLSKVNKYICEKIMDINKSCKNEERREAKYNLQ

rpia_human RPIA = rpia_human RPIA (UniProt P49247)
drc12_human DRC12 = drc12_human DRC12 (UniProt Q494R4)
acy3_human ACY3 = target: T3, acy3_human ACY3 (UniProt Q96HD9)
T3 sequence: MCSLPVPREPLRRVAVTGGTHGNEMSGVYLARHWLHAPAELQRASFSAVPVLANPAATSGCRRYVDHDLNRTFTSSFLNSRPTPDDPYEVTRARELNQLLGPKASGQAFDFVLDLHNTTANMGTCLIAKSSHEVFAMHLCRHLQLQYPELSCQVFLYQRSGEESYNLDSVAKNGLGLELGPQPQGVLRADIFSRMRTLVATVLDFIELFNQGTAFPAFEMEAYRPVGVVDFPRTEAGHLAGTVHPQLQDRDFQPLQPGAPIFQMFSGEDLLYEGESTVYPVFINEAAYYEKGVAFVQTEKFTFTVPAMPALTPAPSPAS

txlna_human TXLNA = txlna_human TXLNA (UniProt P40222)
trim1_human MID2 = target: T4, trim1_human MID2 (UniProt Q9UJV3)
T4 sequence: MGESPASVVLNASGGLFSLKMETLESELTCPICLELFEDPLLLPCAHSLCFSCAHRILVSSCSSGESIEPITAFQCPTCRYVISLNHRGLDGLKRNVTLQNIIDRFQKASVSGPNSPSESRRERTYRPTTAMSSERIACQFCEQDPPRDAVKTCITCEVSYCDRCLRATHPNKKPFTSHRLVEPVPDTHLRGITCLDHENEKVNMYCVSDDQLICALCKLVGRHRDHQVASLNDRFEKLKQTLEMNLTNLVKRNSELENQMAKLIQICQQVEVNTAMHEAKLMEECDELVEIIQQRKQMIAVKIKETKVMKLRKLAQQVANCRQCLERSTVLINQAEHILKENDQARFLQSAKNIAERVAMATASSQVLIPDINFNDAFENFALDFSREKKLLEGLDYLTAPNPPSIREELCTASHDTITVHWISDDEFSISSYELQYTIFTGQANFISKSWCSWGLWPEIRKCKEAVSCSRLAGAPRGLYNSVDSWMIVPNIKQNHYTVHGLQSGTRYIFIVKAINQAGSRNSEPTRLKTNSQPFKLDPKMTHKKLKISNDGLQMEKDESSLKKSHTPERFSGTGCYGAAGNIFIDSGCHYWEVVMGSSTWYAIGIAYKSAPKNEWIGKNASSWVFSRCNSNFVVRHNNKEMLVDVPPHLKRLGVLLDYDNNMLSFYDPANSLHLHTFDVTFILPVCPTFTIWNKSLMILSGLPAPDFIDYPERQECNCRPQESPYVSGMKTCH

reep6_human REEP6 = reep6_human REEP6 (UniProt Q96HR9)
reep6_human REEP6, sequence (Q96HR9 whole entry): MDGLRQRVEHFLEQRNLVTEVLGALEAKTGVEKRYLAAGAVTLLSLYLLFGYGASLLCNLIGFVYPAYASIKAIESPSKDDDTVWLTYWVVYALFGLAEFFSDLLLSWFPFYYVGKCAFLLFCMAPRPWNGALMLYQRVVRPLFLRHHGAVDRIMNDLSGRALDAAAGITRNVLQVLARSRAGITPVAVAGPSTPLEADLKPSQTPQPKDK

txlna_human TXLNA, sequence (P40222 whole entry): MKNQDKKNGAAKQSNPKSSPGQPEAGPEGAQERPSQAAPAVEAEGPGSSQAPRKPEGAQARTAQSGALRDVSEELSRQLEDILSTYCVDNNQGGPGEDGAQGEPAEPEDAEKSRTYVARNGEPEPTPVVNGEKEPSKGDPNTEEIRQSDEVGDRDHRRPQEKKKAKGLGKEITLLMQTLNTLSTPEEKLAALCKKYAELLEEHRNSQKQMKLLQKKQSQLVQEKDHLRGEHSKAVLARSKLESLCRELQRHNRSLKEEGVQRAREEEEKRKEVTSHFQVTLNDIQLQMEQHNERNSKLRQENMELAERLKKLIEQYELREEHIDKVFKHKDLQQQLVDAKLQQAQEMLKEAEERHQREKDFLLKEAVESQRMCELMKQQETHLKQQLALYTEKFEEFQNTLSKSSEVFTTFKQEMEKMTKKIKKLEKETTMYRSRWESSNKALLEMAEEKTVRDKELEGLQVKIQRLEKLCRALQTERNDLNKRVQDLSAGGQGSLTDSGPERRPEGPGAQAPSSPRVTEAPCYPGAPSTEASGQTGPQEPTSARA
drc12_human DRC12, sequence (Q494R4 whole entry): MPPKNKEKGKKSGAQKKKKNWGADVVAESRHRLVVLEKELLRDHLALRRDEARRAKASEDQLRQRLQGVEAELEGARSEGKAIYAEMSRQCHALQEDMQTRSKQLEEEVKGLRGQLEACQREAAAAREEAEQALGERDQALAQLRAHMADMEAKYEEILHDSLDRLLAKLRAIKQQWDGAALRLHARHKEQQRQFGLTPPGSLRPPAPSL
rpia_human RPIA, sequence (P49247 whole entry): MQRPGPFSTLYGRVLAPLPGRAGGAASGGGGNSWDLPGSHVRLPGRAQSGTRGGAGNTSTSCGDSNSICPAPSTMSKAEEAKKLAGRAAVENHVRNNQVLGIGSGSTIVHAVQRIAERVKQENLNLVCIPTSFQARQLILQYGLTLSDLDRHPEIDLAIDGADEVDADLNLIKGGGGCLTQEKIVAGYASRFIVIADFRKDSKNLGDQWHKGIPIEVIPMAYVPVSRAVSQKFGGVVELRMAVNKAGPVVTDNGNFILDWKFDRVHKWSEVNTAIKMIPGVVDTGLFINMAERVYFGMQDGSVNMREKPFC

Q: How did the “effect of a mutation on the interaction” value (dcor_human ODC1) turn out when “Golgi reassembly-stacking protein 2 (Homo sapiens) (from UniProt Q9H8Y8) L320R” was run?
A: The value was “disrupting interaction strength”.

Q: And the “effect of a mutation on the interaction” value (bend5_human BEND5)?
A: Its value is “with no effect”.

Q: And the “effect of a mutation on the interaction” value (rpia_human RPIA)?
A: Its value is “with no effect”.

Q: What about the “effect of a mutation on the interaction” value (drc12_human DRC12) of the same substance?
A: The value was “with no effect”.

Q: And the “effect of a mutation on the interaction” value (acy3_human ACY3)?
A: The value was “disrupting interaction strength”.

Q: What about the “effect of a mutation on the interaction” value (txlna_human TXLNA) of the same substance?
A: Its value is “with no effect”.

Q: And the “effect of a mutation on the interaction” value (trim1_human MID2)?
A: The value was “with no effect”.

Q: What about the “effect of a mutation on the interaction” value (reep6_human REEP6) of the same substance?
A: Its value is “with no effect”.
